# Reference: US11306137B2, “Antibody binding agents that bind Acinetobactor and uses thereof” (priority 2015, dated 2022)
# T1: DHFR-3Loop fusion protein (mouse (DHFR part)); A. baumannii (OmpA …)
# T1 construct: also called DHFR-3 Loop protein; recombinant DHFR-3Loop protein
# T1 chain: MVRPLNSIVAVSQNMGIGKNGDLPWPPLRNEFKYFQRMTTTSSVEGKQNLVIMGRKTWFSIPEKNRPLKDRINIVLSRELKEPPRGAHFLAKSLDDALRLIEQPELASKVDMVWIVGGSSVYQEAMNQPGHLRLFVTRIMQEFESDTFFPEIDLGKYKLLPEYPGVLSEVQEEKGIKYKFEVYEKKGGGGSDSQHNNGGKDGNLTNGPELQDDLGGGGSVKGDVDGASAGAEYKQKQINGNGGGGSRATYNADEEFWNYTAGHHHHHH
# T2: outer membrane protein A (OmpA) of A. baumannii (A. baumannii, UniProt Q6RYW5 20-356)
# T2 construct: also called whole OmpA
# T2 sequence: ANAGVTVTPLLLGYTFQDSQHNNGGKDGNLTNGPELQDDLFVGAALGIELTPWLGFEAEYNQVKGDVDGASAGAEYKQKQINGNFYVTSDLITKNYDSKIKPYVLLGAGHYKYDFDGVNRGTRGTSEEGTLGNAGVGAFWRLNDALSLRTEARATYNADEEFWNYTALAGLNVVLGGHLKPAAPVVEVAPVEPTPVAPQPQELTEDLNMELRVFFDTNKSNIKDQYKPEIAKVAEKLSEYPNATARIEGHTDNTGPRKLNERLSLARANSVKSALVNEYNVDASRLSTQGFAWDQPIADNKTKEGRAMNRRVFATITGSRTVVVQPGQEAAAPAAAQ
# B1: R2D2: mouse IgM monoclonal antibody from hybridoma R2D2 (ATCC PTA-122178); light chain SEQ ID NO:28, heavy chain SEQ ID NO:29 (antibody, listed as Mus musculus)
# heavy: QVQLKQSGPGLVQPSQSLSITCTVSGFSLTSYGVHWVRQSPGKGLEWLGVIWSGGSTDYNAAFISRLSISKDNSKSQVFFKMNSLQANDTAIYYCARRRRSTAMDYWGQGTSVTVSSESQSFPN
# light: DIGMTQSXSPQDMSVGPKVTMSSKCRKSLLNSRNQKKYLTSDQQKPGQYTKSLGDFASISESRVTDRFIGSGSGTDLPLGWGILPPLPLADYFCQQHYSTP
# modifications: not fully specified; (8)..(8) Xaa can be any naturally occurring amino acid
# B2: 9.1C8 monoclonal antibody (antibody, V domains shown)
# VH: EVQLQQSGPELVKPGASVKISCKASGYSFTGYTMNWVKQSHGKSLEWIGRINPYNGDSFYNQKFKGKATLTVDKSSNIAHMEFLSLTSEDSAVYYCGRSGDGPWFAYWGQGTLVTVSA
# VL: LPLSLPVSLGDQASISCRSSQSIVHNNGNTYLEWYLQKPGQSPKLLIYKVSNRFSGVPDRFSGSGSGTDFTLKISRVEAEDLGVYYCFQGSHVPLTFGAGTKLEIKGSRS
# notes: also called C8 mAb; C8 MAb
# B3: X1 monoclonal antibody (antibody, V domains shown)
# VH: EVQLQQSGPELVKPGASVKISCKASGYSFTGYFMNWVKQSHGKSLEWIGRINPYNGDTFYNQKFKGKATLTVDKSSSTAHMELRSLTSEDSAVYYCARLNYRGAYWGQGTLVTVSA
# VL: LPLSLPVSLGDQASISCRSSQSIVHNNGNTYLEWYLQKPGQSPKLLIYKVSNRFSGVPDRFSGSGSGTDFTLKISRVEAEDLGVYYCFQGSHVPLTFGAGTKLEIKGSRS
# notes: also called X1 mAb
# What was measured:
# A. baumannii HUMC1 [1] = assay: Lethal bloodstream (i.v. tail-vein) infection model, survival; assay type: in vivo, mice; conditions: i.v. infection; treated i.p. at 1 hr post-infection; C8 150 μg, colistin 0.0125 mg/kg; FIG. 7D
# A. baumannii HUMC1 [2] = assay: Effects of antibody on colistin MIC; assay type: cell-based
# Protocol: The minimum inhibitory concentration (MIC) of colistin for A. baumannii HUMC1 was determined in congruence with standard CLSI methodologies. In brief, A. baumannii HUMC1 was passaged in Mueller Hinton II (MH-II) Broth for 3 hr at 37° C. with shaking then diluting to 5×10^5 CFUs/mL. Colistin was serially diluted across rows of a 96-well plate with 0.1, 1, or 10 μg/mL C8 MAb, which was incubated at 37° C. for 24 hr. The MIC value was read as the lowest concentration that prevented visible growth of bacteria.
# [3] = system: A. baumannii cell surface; assay: Flow cytometry binding to A. baumannii cell surface; conditions: HUMC1 strain
# Protocol: Hybridoma pre-clones were selected for subcloning based on bacterial cell surface reactivity by flow cytometry. Briefly, A. baumannii was passaged to log phase, stained with the bacterial dye SYTO BC (LifeTech #B7277), then stained with pre-clone supernatant from 96-well plates at 4° C., rinsed, and counter-stained with CF 647-conjugated goat anti-mouse IgG (Sigma-Aldrich, #SAB4600182). Control samples were stained with mouse IgG1 isotype control mAb (R&D Systems, #MAB002). Percent positivity was determined by flow cytometry.
# Hybridoma cell lines were propagated in 96-well flat-bottom plates in DMEM-20%, and supernatants were harvested from wells for initial flow cytometry screening to identify antibodies that bound to intact bacteria. In brief, A. baumannii isolates were passaged to log phase, stained with the bacterial dye SYTO BC (LifeTech #B7277), and incubated for 1 hr with undiluted supernatants collected from 96-well plates at 4° C. Cells were washed and counter-stained with a secondary antibody, CF647-conjugated goat anti-mouse IgG (Sigma-Aldrich, #SAB4600182). Control samples were stained with a mouse IgG1 isotype control MAb (R&D Systems, #MAB002) as a negative control, and mouse polyclonal HUMC1-immune serum as a positive control for bacterial binding. Hybridomas that tested positive for bacterial binding were subcloned by limiting dilution into 96-well plates to ensure clonality, expanded, and retested to confirm bacterial binding.
# A. baumannii HUMC1 [4] = assay: Lethal bloodstream (i.v. tail-vein) infection model, survival; assay type: in vivo, mice; conditions: 2×10^7 HUMC1 i.v.; treated once i.v., approximately 20 μg
# Protocol: To determine if C8 could treat, inhibit and/or prevent A. baumannii induced sepsis, mice were infected i.v. via the tail-vein with 2×10^7 hyper-virulent A. baumannii HUMC1 and were treated once i.v. with either protein-G purified C8 mAb (approximately 10 or 20 μg doses) or an isotype-control antibody in a saline buffer. […] In a second experiment, mice were similarly infected and the C8 MAb was administered once i.v. in saline buffer at a low (5 μg) and very low (0.5 μg) dose.
# Male C3HeB/Fe mice (Jackson Labs) between the ages of 7-10 wk were used for all experiments. All animal work was conducted following approval by the Institutional Animal Use and Care Committee at the University of Southern California, in compliance with the recommendations in the Guide for the Care and Use of Laboratory Animals of the National Institutes of Health.
# For the bloodstream infection model, mice were infected intravenously via the tail-vein with designated inocula of A. baumannii isolates. An oropharyngeal model of aspiration pneumonia that recapitulates hospital- or ventilator-associated pneumonia (VAP) relevant to ICU populations was used. In brief, mice were sedated with isoflurane, hung by their maxillary incisors, tongues held to prevent swallowing, and 50 μL of bacterial inocula was placed in the trachea to allow inoculation of the organisms into the lungs by reflexive aspiration.
# [5] = target: T1, DHFR-3Loop fusion protein; assay: ELISA with DHFR-3Loop as target (data not shown)
# [6] = target: T2, outer membrane protein A (OmpA) of A. …; assay: ELISA with whole OmpA as target (data not shown)
molecule,measurement,setting,value
colistin,"survival, delayed treatment (monotherapy)",A. baumannii HUMC1 [1],completely ineffective
same,MIC of colistin against HUMC1,A. baumannii HUMC1 [2]; colistin alone,2 µg/mL
same,MIC of colistin against HUMC1,A. baumannii HUMC1 [2]; in the presence of C8 at 0.1 μg/mL,2 µg/mL
same,MIC of colistin against HUMC1,A. baumannii HUMC1 [2]; in the presence of C8 at 1 μg/mL,2 µg/mL
same,MIC of colistin against HUMC1,A. baumannii HUMC1 [2]; in the presence of C8 at 10 μg/mL,2 µg/mL
B1,binding to the cell surface of A. baumannii by flow cytometry,[3],specifically bound
same,protection against infection,A. baumannii HUMC1 [4],protective against infection
B2,binding result,[5],no binding
same,binding result,[6],no binding
B3,binding result,[5],no binding
same,binding result,[6],no binding
